Reference: paper PMC4330390 (Nucleic Acids Research, 2015)

B1: NXF1^ΔNΔUBA:NXT1 complex (complex, human)
chain 1: VRRDRAPPERGGAGTSQDGTSKNWFKITIPYGRKYDKAWLLSMIQSKCSVPFTPIEFHYENTRAQFFVEDASTASALKAVNYKILDRENRRISIIINSSAPPHTILNELKPEQVEQLKLIMSKRYDGSQQALDLKGLRSDPDLVAQNIDVVLNRRSCMAATLRIIEENIPELLSLNLSNNRLYRLDDMSSIVQKAPNLKILNLSGNELKSERELDKIKGLKLEELWLDGNSLCDTFRDQSTYISAIRERFPKLLRLDGHELPPPIAFDVEAPTTLPPCKGSYFGTENLKSLVLHFLQQYYAIYDSGDRQGLLDAYHDGACCSLSIPFIPQNPARSSLAEYFKDSRNVKKLKDPTLRFRLLKHTRLNVVAFLNELPKTQHDVNSFVVDISAQTSTLLCFSVNGVFKEVDGKSRDSLRAFTRTFIAVPASNSGLCIVNDELFVRNASSEEIQRAFAMPAPTP
chain 2: ASVDFKTYVDQACRAAEEFVNVYYTTMDKRRRLLSRLYMGTATLVWNGNAVSGQESLSEFFEMLPSSEFQISVVDCQPVHDEATPSQTTVLVVICGSVKFEGNKQRDFNQNFILTAQASPSNTVWKIASDCFRFQDWAS
notes: also called NXF1:NXT1; TAP:p15

Experiments:
[1] = test system: NXF1ΔNΔUBA+3A;NXT1 (p15) (Homo sapiens;Homo sapiens); assay: ITC
[2] = molecular target: the molecule itself; assay: crystal structure; crystals of the purified NXF1^ΔNΔUBA:NXT1 complex, 18°C, 9% PEG 6000, 1 M LiCl, 0.1 M Na citrate pH 5.1; P1, 3.4 Å, two copies of the complex in the asymmetric unit

Molecule	binding signal (fold weaker than wild type) [1]	stoichiometry N [2]
full-length CTE-RNA	2.5	
B1		2
